Laboratory results reported in the nanobody polyreactivity screen of Harvey et al. (2022).

Experiment: yeast display, Sf9 membrane polyspecificity reagent, FACS + sequencing; frameworks hold sequencing errors
Procedure, shortened: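 A synthetic nanobody library was expressed on Saccharomyces cerevisiae BJ5465 by galactose induction for 36–48 hours. The library was stained for 1 hour at 4 °C with 10% biotinylated, detergent-solubilized Sf9 membrane reagent and enriched with streptavidin microbeads before FACS. Low and high (top ~1%) gates were set on anti-HA fluorescence for expression and streptavidin fluorescence for reagent binding, and each polyreactivity label reflects the gate of origin.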

Row | Sequence | polyreactivity (PSR sort gate)
1 | QVQLVESGGGLVQAGGSLRLSCAASGRIFKYHAMGWYRQAPGKERELVAAITWGGGGTYYADSVKGRFTISRDNAKNTVYLQMNSLIPEDTAVYYCNTERWGTGKLRYNYWGPGTQVTVSS | low polyreactivity
2 | QVQLVESGGGLVQAGGSLRLSCAASGSTFYVYAMGWYRKAPGKEREFVAVITTSGGTTYYADSVKGRFTISRDNAKNTVYLQMNSLKPEDTAVYYCNAGVGYYSLPYDYWGQGTQVTVSS | low polyreactivity
3 | QVQLVESGGGLVQAGGSLRLSCAASGSTFWYYAMGWYRQAPGKERELVAAITSSGSTYYADSVKGRFTISRDNAKNTVYLQMNRLKPEDTAVYYCAAEQWYCYGSYDYWGQVTQVTVSS | high polyreactivity
4 | QVQLQESGAGLVQAGGSLRLSCAASGSIIHLHIMCWYRQAPRKERESVAAISYGTSTYYADSVKGRFTICRDNAKNTVYLQMNSPKPDDTAVYYCAALFLVSKHHHYWGEGTQVTVSS | low polyreactivity
5 | QVQLVESGGGLVQAGGSHRLRCAASGITLLLNAMGWYRQAPGKERELVAAISEGGGSTYYAHSVKGRFTISRDNAKNTVYLQMNSLKPEDTAVYYCNADRVYRVPSEYDSWGQGTQVTVSS | low polyreactivity
6 | KVQLVESCGGLVQAGGSLRLSCAASGFIISNYAMGWYRQAPGKERELVASISWGGGSTYYADSVKGSFTISRDNAKNTVYLQMNSLKPEDTAVYYCAAPSWDGIAYYGGYDYLGQGTQVTVSS | high polyreactivity
7 | QVQLVESGGRLVQAGGSLRLSCAASGRTSGINAMGWYRQAPGKERELVAAISSGGRTYYADSVKGRFTISRDNAKNTVYLQMNSLKPEDTAVYYCAAVIHWSLYRRMEYWGQGTQVTVSS | high polyreactivity
8 | QVQLVESGGGLVQAGGSLRLSCAASGSIFRFYAMGWYRQAPGKERELVAGISRRGGTTYYADSVKGRFTISRDNAKNTVYLQMNSLKPEDTAVYYCAKRSFGYKSRPAFNYWGQGTQVTVSS | high polyreactivity
9 | QDQHGESGGGLVQAGGRLRLSGAASGSTFPGNAMGWYRQAPGKERELVAAITSGGRTYYADSVKGRFTISRDNAKNTVYLQMNSLKPEDTAVYYCAVSTPIQRHGETYAKFDYWGQGTQVTVSS | low polyreactivity
10 | QVQLVESGGGLVQAGGSLRLSCAASGRIFSFNAMGRYRQAPGKERELVAAITWRGGSTYYADSVKGRFTISRDNAKNTVYLQMNSLKPEDTAVYYCNAYPFWRDYDYWGQGTQVTVSS | high polyreactivity
11 | QVQLVESGGGLVQAGGSLRLSCAASGSIFYRNAMGWYRQAPGKERELVAAISARGGRTNYADSVKGRFTISRDNAKNTVYLQMNSLKPEDTAVYYCNTADSWYHRSQAYDYWGQGTQVTVSS | high polyreactivity
12 | QVQLVESGGGLVQAGGSLRLSCAASGSTLAPYVKGWYRQAPGKERELVAVISTRTGRTYYADSVKGRFTISRDNAKNTVYLQMNSLKPEDTAVYYCAAPVYPYQVQTYDYWGQGTQVTVSS | high polyreactivity
13 | QVQLVESGGGLVQAGGSLRLSCAASGIIFLWYAMGWYRQAPGKERELVAAISRTGSSTYYADSVKGRFTISRDNAKNTVYFQMNSLKPEDTAVYYCAAAYYSKRSWRFDYWGQGTQVTVSS | high polyreactivity
14 | QVQLQESGGGLVQAGGSLRLSCAASGNISVTGVMGWYRQAPGKERELVASIGIGGTTYYADSVKGRFSISRDNAKNTVYLQMNSLKPEDTAVYYCGARYVYSAYSYWGQGSQVTVSS | low polyreactivity
15 | QVQLVESGGGLVQAGGSLRLSCAASGRIFYINDMGCYRQAPGKEREFVASITGSGGRTYYADSVKGRFTISRDNAKNTVYLQMNSLKPEDTAVYYCNADLYVGYLYYLYDYWGQVTQVTVSS | low polyreactivity
16 | QVQLVESGGGLVQAGGSLRLSCAASGSILRDHAMGWYRQATGKERELVAAITSGDSTHYADSVKGRFTISRDNAKNTVYLQMNSLKPEDTAVYYCATKWSLISIHGYYYWGQGTQVTVSS | low polyreactivity
17 | QVQLVESGGGLVQAGGSLRLRCAASGTTFRLYAMGWYRQAPGKERELVAAISWIGGRTYYADSVKGRFTISRDNAKNTVYLQMNSLKPEDTAVYYCAATCAYRVARGYDYWGQGTQVTVSS | high polyreactivity
18 | QVQLVESGGGVVQAGGSLRLSCAASGSTFYANAMGWSRQAPGKERELVAAISSGGSTYYADSVKGRFTISRDNAKNTVYLQMNSLKPDDTAVYYCAKPFYSYRYGFGYWGQGTQVTVSS | low polyreactivity
19 | QVQLVESGGGLVQAGGSLRLSCADSGRTFSYNTMGWYRQATGKERELVARITWGGGSTYYADSVKGRFTISRDNAKNTVYLQMNSLKPEDTAVYYCNADLRELSPWYWYSGEMDYWGQGTQVTVSS | low polyreactivity
20 | QVQLVESGGGLVQAGGSLRLSCAASGFTFAYYDMGWYRQAPGKERELVAAISQSGGSTYYADSVKGRFTISRDNAKNTVYLQMKSLKPEDTAVYYCNAYAYTQSYEYDYWGQGTQVTVSS | high polyreactivity
21 | QVQLVESGGGLVQAGGSLRLSCAASGSTFDRYAMGWYRQAPGKEREFVAAITWGGGSTYYADSVKGRFTISRDNAKNTVYLQMNSLKPEDTAVYYCATRYGATFGYWGQGTQVTVSS | low polyreactivity
22 | QVQLVESGGGLVQAGGSLRLSCAASGSTFYAYAMGWYRQAPGKERELVAAIDSGGSTYYADSVKGRFTISRDNAKNTVYLQMNSLKPEDTAVYYCAVRHRYTRAYWGRVYWGQGTQVTVSS | low polyreactivity

Row | Sequence | polyreactivity (PSR sort gate)
23 | QVQLVESGGGLVQAGGSLRLSCAASGRIFTTYVMGCYRQAPGKERELVAAISWSGGNTYYADSVKGRFTISRDNAKNTVYLQMNSLKPEDTAVYYCNAVGTIREGDYWGQGTQVTVSS | low polyreactivity
24 | QVQLVESGVGLVQAGGSLRLSCAASGSTFFIYPMGLYRQAPGKERELVAAIRSGGTYYADSVKGRFTISRDNAKNTVYLQMNSLNPEDTAVYYCAARTRGFRYYYWGQGSQVTVSS | high polyreactivity
25 | QVQLVESGGGLVQAGGSLRLSCAASGSTFYRNAMGWYRQAPGKERELVAAISRGSRTYYADSVKGRFTISRDNAKNTVYLQMNSLKPEDTAVYNCAARAGARDTLHDYWGQGTQVTVSS | high polyreactivity
26 | QVQLVESAAGLVQAGGSLRLSGAASGRIFRYYAMGCYRQAPGKEREFVAGITWSGGRTYYADSVKGRFTISRANAKNTVYLQMNTLKREDTAVYYCAADGWGYSFQWQDHDYWGQGTQVTVSS | low polyreactivity
27 | QVQLVESGGGLVQAGGSLRLSCAASGSTFYYYAMGWYRQAPGKERELVAAIRSSGGSTYYADSVKGRFTISRDNAKNTVYLQMNSLKPEDTAVYYCIHYLSTYHGTFTYGYWGQGTQVTVSS | low polyreactivity
28 | QVQLVESGGGLVQAGGSLRLSCAASGLTFYGYVMGWYRQAPGKERELVASISRSGGRTYYADSVKGRFTISRDNAKNTVYLQMNSLKPEDTAVYYCAAADQVGQEDDYWGQGTQVTVSS | low polyreactivity
29 | QVQLVESGGGLVQAGGSLRLSCAASGRTFRSYAMGWYRQAPGKERELVAVISSDGSTYYADSVKGRFTISRDNAKNTVYLQMNSLKPEDTAVYYCAAEYTFEEIGGVEFDYWGQGTQVTVSS | low polyreactivity
30 | QVQLVESGGGLVQAGGSLRLSCAASGRTFERNAMGWYRQAPGKERELVAAITSGDGTSYADSVKGRFTISRDNAKNTVYLQMNSLKPEDTAVYYCAVSKGVFLVRGYAYHVGYWGQGTQVTVSS | low polyreactivity
31 | QVQLVESGGCLVQAGGSLRLSCAASGRIFSAYAMGWYRQAPGKESELVAAISRSGGLTYYADSVKGRFTISRDNAKNTVYLQMTSLKPEDTAVYYCAARYGSYDSRRWYYYWGQGTQVTVSS | high polyreactivity
32 | QVQLVESGGGLVQAGGSLRLSCAASGRIFLRYAMGWYRQAPGKERELVAVITWSGGSTNYADSVKGRFTISRDNAKNTVYLQMNSLKPEDTAVYYCAVDNSGRSWPYDYWGQGTQVTVSS | low polyreactivity
33 | QVQLVESGGGLVQAGGSLRLSCAASGSIFWGYAMGWYRQAPGKERELVAVISRGGSTYYADSVKGRFTISRDNAKNTVYLQMNSLKPEDTAVYYCADSSSWFYSPEYDYWGQGTQVTVSS | low polyreactivity
34 | QVQLVESGGGLVQAGGSLRLSCAPSGNIFGYYVMAWYRQAPGTERELVAAITWSAGTTNYADSVKGRFTISRDNAKNTVYLQMNSLKPEDTAVYYFAVTWWYQDYDLTWYLYDYWGQGTEVTVSS | low polyreactivity
35 | QVQLVESGGGLVQAGGSLRFSCAASGRIFRYNAMGWYRQAPGKARELVAAISRSGGSTYYADSVKGRFTISRDNAKNTVYLQMISLKPEDTAVYYCAVGSPYGGRAPCVRGGDYWGQGTQVTVSS | high polyreactivity
36 | QVQLVESGGGLVQAGGSLRLSCAASGLTFDSSAMGWYRQAPGTERELVAAISFSGGRTYYADSVKGRFTISRDTAKNTVYLQMNSLKPDDTAVYYCAAQLRYKYDYWGHGTQVTVSS | high polyreactivity
37 | QVQLVESGGGLVQAGGSLRLSCAASGRTFTRYTMGWYRQAPGKERELVAAISSGGSTTYADSVKGRFTISRDNAKNTVYLQMNSLKPEDTAVYYCAAGLVYRGYRRDYWGQGTQVTVSS | low polyreactivity
38 | QVQLVESGGGLVQAGGSLRLSCAASGRSFRDYGMGWYRQAPGKERELVAVITWGGGSTYYADSVKGRFTISRDNAKNTVYLQMNSLKPEDTAVYYCAKEYHYYYWGQGTQVTVSS | low polyreactivity
39 | QVQLVESGGGVVQAGGSLRLSCAASGSIFSLYAMGWYRQAPGNERELVDAISSSGTSTYYADSVKGRFTISRDNAKNSVYLHMNSLKPEDTAVYYCNAYRRRATYNGDYWGQGTQVTVSS | high polyreactivity
40 | LVQLVESGGRLVQAGGSLRLSCAASGNIFWYAMGWYRQAPGKERELVAAITYRGSTTYFAYSVKGRVTISRDKAKNTVYLQMNSLHPEDTAVYYCAARASYTRRHVGRPYDYWGQGTQVTVSS | high polyreactivity
41 | QVQLVESGGGLVQAGGSLRLSCAASGFTFFHYAMGWYRQATGKEREFVAAINTRGSRTYYADSVKGRFTISRDNAKNTVYLQMNSLKPEDTAVYYCAADSVQVYAWQYYYWGQGTQVTVSS | high polyreactivity
42 | QVQLVESGGGLVQAGGSLRLSCAASGSIFQWYAMGWYRQAPGKERELVAVISRGGRTNYADSVKGRFTISRDNAKNTVYLQMNSLKPEDTAVYYCAAAVWFERGFSYRWRYGYWGQGTQVTVSS | high polyreactivity
43 | QVQLVESGGGLVQAGGSLRLSCAASGSTFYGKAMGWYRQAPGKRELLAAITWSGGSTYYADSVKGRFTISRDNAKNTVYLQMNSLKPEDTAVYYCAARNPKSGYNYWGQGTQVTVSS | low polyreactivity
